# In patent publication US20240116985A1 (published 2024):
# Starred links: 1 amine or outer side, 2 acyl side, 3 side chain; linkers in the order of their positions; H or OH if unused. Positions of bridges follow the written chain, without caps; N, C: chain ends. Non-standard residues stand in square brackets, D forms with d. Primed or numbered codes have the meaning given here. B5(15) = 2-amino-2-(pent-4-en-1-yl)hept-6-enoic acid (2,2-bis(4-pentenyl)glycine), stitching residue bearing two staples, C=CCCCC(CCCC=C)(N[*:1])C(=O)[*:2]; B5(5) = 2,2-bis(4-pentenyl)glycine, 2-amino-2-(pent-4-en-1-yl)hept-6-enoic acid (stitching residue), C=CCCCC(CCCC=C)(N[*:1])C(=O)[*:2]; B5(19) = 2-amino-2-(pent-4-en-1-yl)hept-6-enoic acid (bis(4-pentenyl)glycine), C=CCCCC(CCCC=C)(N[*:1])C(=O)[*:2]; Phe(4-CN) = N#Cc1ccc(C[C@H](N)C(=O)O)cc1; Bta = N[C@@H](Cc1csc2ccccc12)C(=O)O; αAllylPro = C=CC[C@@]1(C(=O)O)CCCN1; S8 = C=CCCCCCC[C@](C)(N)C(=O)O; hSer = N[C@@H](CCO)C(=O)O
# T1: full-length beta-Catenin (Uniprot ID P35222) (Homo sapiens (Human), UniProt P35222 1-781)
# T1 construct: also called bCat; B-Catenin
# T1 sequence: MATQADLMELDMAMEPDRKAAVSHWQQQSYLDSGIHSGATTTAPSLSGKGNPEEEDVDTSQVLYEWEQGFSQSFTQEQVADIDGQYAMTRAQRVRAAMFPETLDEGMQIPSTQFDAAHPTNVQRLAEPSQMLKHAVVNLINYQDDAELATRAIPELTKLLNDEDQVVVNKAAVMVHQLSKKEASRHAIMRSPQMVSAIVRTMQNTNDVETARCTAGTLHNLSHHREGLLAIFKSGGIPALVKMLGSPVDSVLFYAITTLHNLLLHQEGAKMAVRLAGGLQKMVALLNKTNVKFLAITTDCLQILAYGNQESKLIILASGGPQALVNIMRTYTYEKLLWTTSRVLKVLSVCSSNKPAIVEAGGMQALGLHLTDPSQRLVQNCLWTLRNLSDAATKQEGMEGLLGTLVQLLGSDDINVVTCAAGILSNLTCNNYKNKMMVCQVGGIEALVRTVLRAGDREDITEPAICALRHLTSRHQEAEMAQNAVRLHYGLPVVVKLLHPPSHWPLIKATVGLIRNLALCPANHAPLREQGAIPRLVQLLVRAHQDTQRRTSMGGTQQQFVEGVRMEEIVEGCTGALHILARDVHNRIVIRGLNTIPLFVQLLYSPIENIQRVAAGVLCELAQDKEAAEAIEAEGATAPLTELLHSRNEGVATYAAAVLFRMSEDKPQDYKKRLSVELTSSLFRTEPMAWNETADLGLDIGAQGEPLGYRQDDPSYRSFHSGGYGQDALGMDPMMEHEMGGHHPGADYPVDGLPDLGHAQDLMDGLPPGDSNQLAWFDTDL
# T2: B-cat-Halo (beta-catenin HaloTag NanoBRET construct expressed in HEK293 cells) (UniProt P35222 1-781, HaloTag NanoBRET 618 Ligand bound to the HaloTag)
# T2 sequence (looked up): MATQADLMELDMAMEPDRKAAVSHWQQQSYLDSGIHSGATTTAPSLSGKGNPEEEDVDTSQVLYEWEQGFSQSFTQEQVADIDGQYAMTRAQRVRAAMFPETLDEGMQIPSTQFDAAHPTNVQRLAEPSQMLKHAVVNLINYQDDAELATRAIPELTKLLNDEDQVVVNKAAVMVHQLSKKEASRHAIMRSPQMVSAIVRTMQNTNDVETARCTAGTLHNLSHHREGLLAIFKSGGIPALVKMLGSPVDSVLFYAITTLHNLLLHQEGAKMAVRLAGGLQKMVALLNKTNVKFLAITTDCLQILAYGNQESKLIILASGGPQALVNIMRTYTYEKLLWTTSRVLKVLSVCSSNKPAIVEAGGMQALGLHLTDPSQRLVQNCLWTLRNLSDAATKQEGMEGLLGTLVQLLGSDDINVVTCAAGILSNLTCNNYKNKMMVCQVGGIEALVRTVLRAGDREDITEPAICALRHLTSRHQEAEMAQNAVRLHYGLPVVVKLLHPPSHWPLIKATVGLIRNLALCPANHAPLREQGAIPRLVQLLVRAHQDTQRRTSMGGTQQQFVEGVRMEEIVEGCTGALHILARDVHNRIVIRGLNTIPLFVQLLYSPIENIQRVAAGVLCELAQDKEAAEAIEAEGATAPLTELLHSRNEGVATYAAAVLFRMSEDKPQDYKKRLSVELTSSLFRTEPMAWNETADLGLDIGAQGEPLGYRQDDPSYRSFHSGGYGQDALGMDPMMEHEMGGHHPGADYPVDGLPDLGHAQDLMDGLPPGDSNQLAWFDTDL
# T3: full-length beta-Catenin (Uniprot ID P35222) (Homo sapiens (Human), UniProt P35222 1-781)
# T3 construct: Any tags on the recombinant protein are not described for the FP assay; also called bCat; B-Catenin
# T3 sequence: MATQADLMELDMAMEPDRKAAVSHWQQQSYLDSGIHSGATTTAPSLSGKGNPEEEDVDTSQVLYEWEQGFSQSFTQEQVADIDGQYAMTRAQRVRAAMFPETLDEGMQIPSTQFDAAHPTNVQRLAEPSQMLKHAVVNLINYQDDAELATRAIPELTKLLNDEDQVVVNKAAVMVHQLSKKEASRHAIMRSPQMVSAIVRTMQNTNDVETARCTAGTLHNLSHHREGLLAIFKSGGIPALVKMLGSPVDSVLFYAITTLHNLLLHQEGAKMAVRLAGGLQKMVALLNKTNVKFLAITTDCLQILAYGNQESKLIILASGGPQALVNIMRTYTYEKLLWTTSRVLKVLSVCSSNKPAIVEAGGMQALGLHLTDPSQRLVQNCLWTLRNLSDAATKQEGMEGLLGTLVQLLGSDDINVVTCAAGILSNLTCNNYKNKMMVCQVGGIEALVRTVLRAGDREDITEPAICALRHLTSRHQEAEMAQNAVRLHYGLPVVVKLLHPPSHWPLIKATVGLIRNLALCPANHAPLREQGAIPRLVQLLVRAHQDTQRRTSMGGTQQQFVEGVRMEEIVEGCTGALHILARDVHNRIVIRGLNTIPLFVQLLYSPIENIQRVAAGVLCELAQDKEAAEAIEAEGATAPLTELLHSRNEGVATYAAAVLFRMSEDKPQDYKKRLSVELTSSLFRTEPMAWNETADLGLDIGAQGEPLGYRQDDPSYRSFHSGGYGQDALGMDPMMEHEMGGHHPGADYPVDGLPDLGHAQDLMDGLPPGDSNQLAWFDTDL
# What was measured:
# [1] = target: T1, full-length beta-Catenin (Uniprot ID …); assay: fluorescence polarization competition; peptide titrated against 10 nM full-length beta-catenin + 10 nM 5FAM-TCF4(10-53)
# Description: The plate was incubated protected from light for 60 minutes at 20° C. prior to read. Reads were performed on a CLARIOstar plate reader (BMG Labtech) in duplicate, and data were fitted to a 1:1 binding model with hill slope using an in-house script. All provided concentrations are final concentrations.
# [2] = target: T2, B-cat-Halo (beta-catenin HaloTag …); assay: cell-based or functional assay
# [3] = target: T3, full-length beta-Catenin (Uniprot ID …); assay: fluorescence polarization competition; displacement of 5FAM-TCF4(10-53) from full-length beta-catenin
# How it was run: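 Data fitted to 1:1 binding model with hill slope from duplicate reads taken after 60 minutes at 20° C. in the dark.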
IC50 [1],NanoBRET Abs IC50 [2],IC50 [3],Binder
5 µM,,,"Ac-[αAllylPro]DA[B5(19)]DDAAFV[S8][Phe(4-CN)][Bta]Q-NH2 (staple 1-4, 4-11, Stapled peptide; also called Ac-PL3-Asp-Ala-B5-Asp-Asp-Ala-Ala-Phe-Val-S8-4CNF-BztA-Gln-NH2) [I-359]"
,31.4 µM,0.102 µM,"Ac-[αAllylPro]DS[B5(5)]DEAAFL[S8]F[Bta]Q-NH2 (staple 1-4, 4-11, Stapled peptide composition; Staple olefins are retained) [I-1528: Ac-PL3-Asp-Ser-B5-Asp-Glu-Ala-Ala-Phe-Leu-S8-Phe-BztA-Gln-NH2]"
,> 20 µM,0.126 µM,"Ac-[αAllylPro]DS[B5(15)]DEAAF[hSer][S8]F[Bta]Q-NH2 (staple 1-4, 4-11; not fully specified; printed as Ac-PL3-Asp-Ser-B5-Asp-Glu-Ala-Ala-Phe-Hse-S8-Phe-BztA-Gln-NH2, Stapled peptide composition) [I-1529: Ac-PL3-Asp-Ser-B5-Asp-Glu-Ala-Ala-Phe-Hse-S8-Phe-BztA-Gln-NH2]"

# Second part, the binder before the results:
Binder,IC50 [1],NanoBRET Abs IC50 [2],IC50 [3]
"XDAXDDAAFVXFAQ (not fully specified; N-terminal Ac; PL3 at 1, B5 at 4, S8 at 11 (staples 1-4 and 4-11 by olefin metathesis); C-terminal NH2, Stapled peptide; also called Ac-PL3-Asp-Ala-B5-Asp-Asp-Ala-Ala-Phe-Val-S8-Phe-Ala-Gln-NH2) [I-358]",5 µM,,
"Ac-[αAllylPro]DS[B5(5)]DEAAFQ[S8]F[Bta]Q-NH2 (staple 1-4, 4-11; also: staple isomer, earlier eluting HPLC peak, Stapled peptide composition; It has the same description as I-1527 and is the staple isomer composition of the earlier eluting HPLC peak) [I-1526: Ac-PL3-Asp-Ser-B5-Asp-Glu-Ala-Ala-Phe-Gln-S8-Phe-BztA-Gln-NH2]",,> 20 µM,0.084 µM
